Read-outs that look alike come from different tables or passages of the source.
T1: human IL-33 (mm2) (human, UniProt O95760 112-270)
T1 chain: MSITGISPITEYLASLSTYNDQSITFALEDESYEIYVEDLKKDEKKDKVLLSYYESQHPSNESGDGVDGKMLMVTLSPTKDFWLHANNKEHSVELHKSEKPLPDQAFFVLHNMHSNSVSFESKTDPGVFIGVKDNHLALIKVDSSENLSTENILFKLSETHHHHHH

T2: cynomolgus monkey IL-33 (cys mut) (cynomolgus monkey)
T2 chain: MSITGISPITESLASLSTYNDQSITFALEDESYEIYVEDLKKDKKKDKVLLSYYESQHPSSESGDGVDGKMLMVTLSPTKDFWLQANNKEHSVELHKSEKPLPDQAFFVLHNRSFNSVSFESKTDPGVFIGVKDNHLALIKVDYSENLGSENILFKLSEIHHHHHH


Assays:
human IL-33 (mm2) [1] = biological target: T1, human IL-33 (mm2); experiment: cell-based or functional assay
human IL-33 (mm2) [2] = biological target: T1, human IL-33 (mm2); experiment: cell-based or functional assay
[3] = biological target: T2, cynomolgus monkey IL-33 (cys mut); experiment: cell-based or functional assay
human IL-33 (mm2) [4] = biological target: T1, human IL-33 (mm2); experiment: BIAcore, IgG captured by anti-human Fc, 125 nM IL-33 (mm2)
Description: Binding to human and cynomolgus monkey IL-33 was measured by surface plasmon resonance using a BIAcore T200 instrument. An anti-human Fc antibody was immobilized on a CM5 chip, and anti-IL-33 antibodies were captured.

human IL-33 (mm2) [5] = biological target: T1, human IL-33 (mm2); experiment: cell-based or functional assay

| Binder | koff (human IL-33 (mm2) [4]) | estimated IC50, HEK293 ST2 NFkB (human IL-33 (mm2) [5]) | other results |
| --- | --- | --- | --- |
| IL33-57 (antibody, human IgG1, kappa, V domains shown) VH: EVQLVESGGGLVQPGGSLRLSCAASGFTFSSYWMYWVRQAPGKGLEWVASITPNGGNTYYPDSVKGRFTISRDNAKNSLYLQMNSLRAEDTAVYYCARGHYYYTDYSLGYWGQGTLVTVSS VL: DIQMTQSPSSLSASVGDRVTITCKASQNINKHLDWYQQKPGKAPKLLIYFTNNLQTGVPSRFSGSGSGTDFTLTISSLQPEDFATYYCFQYNNGWTFGGGTKVEIKR | – | – | IC50, HEK293 ST2 NFkB (human IL-33 (mm2) [1]): 0.31 nM |
| IL33-188 (antibody, human IgG1, kappa, V domains shown) VH: EVQLVESGGGLVQPGGSLRLSCAASGFTFSSYWMYWVRQAPGKGLEWVAAITPNAGETYYPESVKGRFTISRDNAKNSLYLQMNSLRAEDTAVYYCARGHYYYTSYSLGYWGQGTLVTVSS VL: DIQMTQSPSSLSASVGDRVTITCKASQNINKHLDWYQQKPGKAPKLLIYFTNNLQTGVPSRFSGSGSGTDFTLTISSLQPEDFATYYCFQYNQGWTFGGGTKVEIKR | – | – | IC50, HEK293 ST2 NFkB (human IL-33 (mm2) [2]): 0.147 nM; IC50, whole blood mm2 (human IL-33 (mm2) [2]): 0.017 nM; IC50, HEK293 ST2 NFkB cyno IL-33 [3]: 0.351 nM |
| IL33-58 (antibody, human IgG1, kappa, V domains shown) VH: EVQLVESGGGLVQPGGSLRLSCAASGFTFSSYWMYWVRQAPGKGLEWVASITPLGGNTYYPDSVKGRFTISRDNAKNSLYLQMNSLRAEDTAVYYCARGHYYYTSYSLGYWGQGTLVTVSS VL: DIQMTQSPSSLSASVGDRVTITCKASQNINKHLDWYQQKPGKAPKLLIYFTNNLQTGVPSRFSGSGSGTDFTLTISSLQPEDFATYYCFQYNNGWTFGGGTKVEIKR | – | – | IC50, HEK293 ST2 NFkB (human IL-33 (mm2) [1]): 0.027 nM |
| IL33-61 (antibody, human IgG1, kappa, V domains shown) VH: EVQLVESGGGLVQPGGSLRLSCAASGFTFSSYWMYWVRQAPGKGLEWVASITPNGGETYYPDSVKGRFTISRDNAKNSLYLQMNSLRAEDTAVYYCARGHYYYTDYSLGYWGQGTLVTVSS VL: DIQMTQSPSSLSASVGDRVTITCKASQNINKHLDWYQQKPGKAPKLLIYFTNNLQTGVPSRFSGSGSGTDFTLTISSLQPEDFATYYCFQYNNGWTFGGGTKVEIKR | – | – | IC50, HEK293 ST2 NFkB (human IL-33 (mm2) [1]): 0.595 nM |
| 9B3-563 (antibody, human IgG1, kappa, V domains shown) VH: EVQLVETGGGLVQPGRSLKLSCVASGFTFSNYWMYWIRQAPGMGLEWVSSINNDGGNTYYLDSVKGRFTISRNNAENTVYLQMNSLRSEDTATYYCAKGHYYYSSYSFAYWGQGTLVTVSS VL: DIQMTQSPSVLSASVGDRVTLSCKASHNINKHLDWYQQKVGEAPKLLIYFTNNLQTGIPSRFSGSGSGTDYTLTISSLQPEDVATYFCFQYNSGWTFGQGTKVEIKR | 0.00109 s⁻¹ | 0.177 nM | – |
| 9B3-2A (antibody, human IgG1, kappa, V domains shown) VH: EVQLVETGGGLVQPGRSLKLSCVASGFTFSNYWMYWIRQAPGMGLEWVSSINNDGGNTYYLDSVKGRFTISRNNAENTVYLQMNSLRSEDTATYYCAKGHYSYSSYSFGYWGQGTLVTVSS VL: DIQMTQSPSVLSASVGDRVTLSCKASHNINKHLDWYQQKVGEAPKLLIYFTNNLQTGIPSRFSGSGSGTDYTLTISSLQPEDVATYFCFQYNSGWTFGQGTKVEIKR | 0.000437 s⁻¹ | 0.056 nM | – |
| 9B3-1 (antibody, human IgG1, kappa, V domains shown) VH: EVQLVETGGGLVQPGRSLKLSCVASGFTFSNYWMYWIRQAPGMGLEWVSSINNDGGNTYYLDSVKGRFTISRNNAENTVYLQMNSLRSEDTATYYCAKGHYYYSSYSLGYWGQGTLVTVSS VL: DIQMTQSPSVLSASVGDRVTLSCKASHNINKHLDWYQQKVGEAPKLLIYFTNNLQTGIPSRFSGSGSGTDYTLTISSLQPEDVATYFCFQYNSGWTFGQGTKVEIKR | 0.000569 s⁻¹ | 0.039 nM | – |
| 9B3-5 (antibody, human IgG1, kappa, V domains shown) VH: EVQLVETGGGLVQPGRSLKLSCVASGFTFSNYWMYWIRQAPGMGLEWVSSINNDGGNTYYLDSVKGRFTISRNNAENTVYLQMNSLRSEDTATYYCAKGHYSYTSYSFGYWGQGTLVTVSS VL: DIQMTQSPSVLSASVGDRVTLSCKASHNINKHLDWYQQKVGEAPKLLIYFTNNLQTGIPSRFSGSGSGTDYTLTISSLQPEDVATYFCFQYNSGWTFGQGTKVEIKR | 0.000325 s⁻¹ | 0.106 nM | – |
| 9B3-7 (antibody, human IgG1, kappa, V domains shown) VH: EVQLVETGGGLVQPGRSLKLSCVASGFTFSNYWMYWIRQAPGMGLEWVSSINNDGGNTYYLDSVKGRFTISRNNAENTVYLQMNSLRSEDTATYYCAKGRYYYSSYSFAYWGQGTLVTVSS VL: DIQMTQSPSVLSASVGDRVTLSCKASHNINKHLDWYQQKVGEAPKLLIYFTNNLQTGIPSRFSGSGSGTDYTLTISSLQPEDVATYFCFQYNSGWTFGQGTKVEIKR | 0.000589 s⁻¹ | 0.069 nM | – |
| 9B3-31v2 (antibody, human IgG1, kappa, V domains shown) VH: EVQLVETGGGLVQPGRSLKLSCVASGFTFSNYWMYWIRQAPGMGLEWVSSINNDGGNTYYLDSVKGRFTISRNNAENTVYLQMNSLRSEDTATYYCAKGHYYYSSYSFAFWGQGTLVTVSS VL: DIQMTQSPSVLSASVGDRVTLSCKASHNINKHLDWYQQKVGEAPKLLIYFTNNLQTGIPSRFSGSGSGTDYTLTISSLQPEDVATYFCFQYNSGWTFGQGTKVEIKR | 0.000706 s⁻¹ | 0.202 nM | – |
| 9B3-15 (antibody, human IgG1, kappa, V domains shown) VH: EVQLVETGGGLVQPGRSLKLSCVASGFTFSNYWMYWIRQAPGMGLEWVSSINNDGGNTYYLDSVKGRFTISRNNAENTVYLQMNSLRSEDTATYYCAKGHYSYSSYSFANWGQGTLVTVSS VL: DIQMTQSPSVLSASVGDRVTLSCKASHNINKHLDWYQQKVGEAPKLLIYFTNNLQTGIPSRFSGSGSGTDYTLTISSLQPEDVATYFCFQYNSGWTFGQGTKVEIKR | 0.000479 s⁻¹ | 0.101 nM | – |
| 9B3-36 (antibody, human IgG1, kappa, V domains shown) VH: EVQLVETGGGLVQPGRSLKLSCVASGFTFSNYWMYWIRQAPGMGLEWVSSINNDGGNTYYLDSVKGRFTISRNNAENTVYLQMNSLRSEDTATYYCAKGHYYYTSYSFAYWGQGTLVTVSS VL: DIQMTQSPSVLSASVGDRVTLSCKASHNINKHLDWYQQKVGEAPKLLIYFTNNLQTGIPSRFSGSGSGTDYTLTISSLQPEDVATYFCFQYNSGWTFGQGTKVEIKR | 0.000289 s⁻¹ | 0.251 nM | – |
| 9B3-2B (antibody, human IgG1, kappa, V domains shown) VH: EVQLVETGGGLVQPGRSLKLSCVASGFTFSNYWMYWIRQAPGMGLEWVSSINNDGGNTYYLDSVKGRFTISRNNAENTVYLQMNSLRSEDTATYYCVKGHYSYSSYSIDYWGQGTLVTVSS VL: DIQMTQSPSVLSASVGDRVTLSCKASHNINKHLDWYQQKVGEAPKLLIYFTNNLQTGIPSRFSGSGSGTDYTLTISSLQPEDVATYFCFQYNSGWTFGQGTKVEIKR | 0.000506 s⁻¹ | 0.048 nM | – |
| 7E8H/9B3K (antibody, human IgG1, kappa, V domains shown) VH: EVQLVETGGGLVQPGRSLKLSCKTSGFTFSSYWMYWIRQAPGKGLEWVSSITPNGGNTYYPDSVKGRFTISRDNAENTIYLQMSSLRSEDTATYFCAKGHYYYTSYSLGYWGQGSLVTVSS VL: DIQMTQSPSVLSASVGDRVTLSCKASHNINKHLDWYQQKVGEAPKLLIYFTNNLQTGIPSRFSGSGSGTDYTLTISSLQPEDVATYFCFQYNSGWTFGQGTKVEIKR | 0.000385 s⁻¹ | 0.015 nM | – |
| 9B3-13 (antibody, human IgG1, kappa, V domains shown) VH: EVQLVETGGGLVQPGRSLKLSCVASGFTFSNYWMYWIRQAPGMGLEWVSSINNDGGNTYYLDSVKGRFTISRNNAENTVYLQMNSLRSEDTATYYCARGHYYYNSYSFAHWGQGTLVTVSS VL: DIQMTQSPSVLSASVGDRVTLSCKASHNINKHLDWYQQKVGEAPKLLIYFTNNLQTGIPSRFSGSGSGTDYTLTISSLQPEDVATYFCFQYNSGWTFGQGTKVEIKR | 0.000326 s⁻¹ | 0.175 nM | – |
| 9B3-3 (antibody, human IgG1, kappa, V domains shown) VH: EVQLVETGGGLVQPGRSLKLSCVASGFTFSNYWMYWIRQAPGMGLEWVSSINNDGGNTYYLDSVKGRFTISRNNAENTVYLQMNSLRSEDTATYYCAKGHYSYSSYSIDYWGQGTLVTVSS VL: DIQMTQSPSVLSASVGDRVTLSCKASHNINKHLDWYQQKVGEAPKLLIYFTNNLQTGIPSRFSGSGSGTDYTLTISSLQPEDVATYFCFQYNSGWTFGQGTKVEIKR | 0.000424 s⁻¹ | 0.048 nM | – |

More lines, main results first:

| koff (human IL-33 (mm2) [4]) | estimated IC50, HEK293 ST2 NFkB (human IL-33 (mm2) [5]) | Binder | other results |
| --- | --- | --- | --- |
| 0.000642 s⁻¹ | 0.067 nM | 9B3-162 (antibody, human IgG1, kappa, V domains shown) VH: EVQLVETGGGLVQPGRSLKLSCVASGFTFSNYWMYWIRQAPGMGLEWVSSINNDGGNTYYLDSVKGRFTISRNNAENTVYLQMNSLRSEDTATYYCAKGHYYYSSYSFGYWGQGTLVTVSS VL: DIQMTQSPSVLSASVGDRVTLSCKASHNINKHLDWYQQKVGEAPKLLIYFTNNLQTGIPSRFSGSGSGTDYTLTISSLQPEDVATYFCFQYNSGWTFGQGTKVEIKR | – |
| 0.000543 s⁻¹ | 0.063 nM | 9B3-79 (antibody, human IgG1, kappa, V domains shown) VH: EVQLVETGGGLVQPGRSLKLSCVASGFTFSNYWMYWIRQAPGMGLEWVSSINNDGGNTYYLDSVKGRFTISRNNAENTVYLQMNSLRSEDTATYYCARGHYYYTSYSFAYWGQGTLVTVSS VL: DIQMTQSPSVLSASVGDRVTLSCKASHNINKHLDWYQQKVGEAPKLLIYFTNNLQTGIPSRFSGSGSGTDYTLTISSLQPEDVATYFCFQYNSGWTFGQGTKVEIKR | – |
